According to the RNAGym collection of RNA variant scans (doi:10.1021/acssynbio.7b00057):

B1: Pistol ribozyme (parent)
chain: GGGUCGUUGUUCCAUAAUCGCGUGGAUAUGGCACGCAAGUUUCUACCGGGCACCGUAAAUGUCCGACUGGAGCCGUUCGGGCGGCUAUAAACAGACCUCAGGCCCGAAGCGUGGCGGCACCUGCCGCCGGUGGUAAAAAAGAUCGGAAGAGCACACGUCU

Variants of: B1
Experiment: aptazyme ON/OFF ratio, guanine; higher = stronger switching; co-transcriptional cleavage with and without guanine
In the case of G9A C12A C13A, the “aptazyme ON/OFF ratio” value is reported as 1.45.
For G9A C12A C13G, the “aptazyme ON/OFF ratio” value was 1.12.
In the case of G9A C12A C13U, the “aptazyme ON/OFF ratio” value is reported as 1.38.
For G9A, the “aptazyme ON/OFF ratio” value was 3.41.
In the case of U8G U10C C13A, the “aptazyme ON/OFF ratio” value is reported as 1.05.
For U8G U10C C13G, the “aptazyme ON/OFF ratio” value was 1.04.
For U8G U10C C13U, the “aptazyme ON/OFF ratio” value was 1.15.
With U8G U10A U11C C12U C13A the “aptazyme ON/OFF ratio” value was 1.2.
For U8G U10A U11C C12U C13G, the “aptazyme ON/OFF ratio” value was 1.28.
In the case of U8G U10A U11C C12U C13U, the “aptazyme ON/OFF ratio” value is reported as 1.14.
In the case of U8G U10G U11C C12A C13U, the “aptazyme ON/OFF ratio” value is reported as 1.09.
In the case of U8G U10G U11C C12A C13G, the “aptazyme ON/OFF ratio” value is reported as 1.08.
In the case of U8G U10G U11C C12A C13A, the “aptazyme ON/OFF ratio” value is reported as 1.06.
With U8G U10C U11C C13G the “aptazyme ON/OFF ratio” value was 1.03.
In the case of U8G U10C U11C C13A, the “aptazyme ON/OFF ratio” value is reported as 1.03.
In the case of U8G U10C U11C C13U, the “aptazyme ON/OFF ratio” value is reported as 1.04.
With U8G U10A C12A C13A the “aptazyme ON/OFF ratio” value was 1.26.
In the case of U8G U10A C12A C13U, the “aptazyme ON/OFF ratio” value is reported as 1.27.
For U8G U10A C12A C13G, the “aptazyme ON/OFF ratio” value was 1.05.
For U8G U10G U11G C12U C13U, the “aptazyme ON/OFF ratio” value was 1.34.
With U8G U10G U11G C12U C13G the “aptazyme ON/OFF ratio” value was 1.31.
With U8G U10G U11G C12U C13A the “aptazyme ON/OFF ratio” value was 1.42.
In the case of U8G G9U U11C, the “aptazyme ON/OFF ratio” value is reported as 1.24.
In the case of U8G G9U U11G, the “aptazyme ON/OFF ratio” value is reported as 1.36.
For U8G G9U U11A, the “aptazyme ON/OFF ratio” value was 1.73.
For U8G U10C U11C C12A C13G, the “aptazyme ON/OFF ratio” value was 1.11.
With U8G U10C U11C C12A C13U the “aptazyme ON/OFF ratio” value was 1.05.
In the case of U8G U10C U11C C12A C13A, the “aptazyme ON/OFF ratio” value is reported as 1.1.
With U8G G9U U11C C12U C13U the “aptazyme ON/OFF ratio” value was 1.03.
In the case of U8G G9U U11C C12U C13G, the “aptazyme ON/OFF ratio” value is reported as 1.08.
In the case of U8G G9U U11C C12U C13A, the “aptazyme ON/OFF ratio” value is reported as 1.06.
For U8G U10G U11G C12G C13U, the “aptazyme ON/OFF ratio” value was 1.29.
In the case of U8G U10G U11G C12G C13A, the “aptazyme ON/OFF ratio” value is reported as 1.15.
In the case of U8G U10G U11G C12G C13G, the “aptazyme ON/OFF ratio” value is reported as 1.1.
With U8G U10A U11A C13G the “aptazyme ON/OFF ratio” value was 1.07.
For U8G U10A U11A C13A, the “aptazyme ON/OFF ratio” value was 1.2.
For U8G U10A U11A C13U, the “aptazyme ON/OFF ratio” value was 1.17.
In the case of U8G U10G C12G C13G, the “aptazyme ON/OFF ratio” value is reported as 1.14.
In the case of U8G U10G C12G C13A, the “aptazyme ON/OFF ratio” value is reported as 1.31.
With U8G U10G C12G C13U the “aptazyme ON/OFF ratio” value was 1.35.
For U8G U11G C12A C13A, the “aptazyme ON/OFF ratio” value was 1.13.
In the case of U8G U11G C12A C13U, the “aptazyme ON/OFF ratio” value is reported as 1.21.
In the case of U8G U11G C12A C13G, the “aptazyme ON/OFF ratio” value is reported as 1.17.
For U8G U10A U11A C12G, the “aptazyme ON/OFF ratio” value was 1.14.
In the case of U8G U10A U11A C12U, the “aptazyme ON/OFF ratio” value is reported as 1.28.
With U8G U10A U11A C12A the “aptazyme ON/OFF ratio” value was 1.12.
For U8G U10C C12A, the “aptazyme ON/OFF ratio” value was 1.34.
In the case of U8G U10C C12U, the “aptazyme ON/OFF ratio” value is reported as 3.67.
In the case of U8G U10C C12G, the “aptazyme ON/OFF ratio” value is reported as 1.49.
In the case of U8G U11C C12A C13U, the “aptazyme ON/OFF ratio” value is reported as 1.14.
In the case of U8G U11C C12A C13G, the “aptazyme ON/OFF ratio” value is reported as 1.23.
With U8G U11C C12A C13A the “aptazyme ON/OFF ratio” value was 1.23.
With U8G U10C C12G C13G the “aptazyme ON/OFF ratio” value was 1.14.
In the case of U8G U10C C12G C13U, the “aptazyme ON/OFF ratio” value is reported as 1.27.
With U8G U10C C12G C13A the “aptazyme ON/OFF ratio” value was 1.13.
In the case of U8G G9U U11A C12A, the “aptazyme ON/OFF ratio” value is reported as 1.42.
In the case of U8G G9U U11A C12U, the “aptazyme ON/OFF ratio” value is reported as 1.36.
For U8G G9U U11A C12G, the “aptazyme ON/OFF ratio” value was 1.25.
In the case of U8G U11A C12A C13A, the “aptazyme ON/OFF ratio” value is reported as 1.18.
For U8G U11A C12A C13U, the “aptazyme ON/OFF ratio” value was 1.28.
With U8G U11A C12A C13G the “aptazyme ON/OFF ratio” value was 1.14.
With U8G U10G C13G the “aptazyme ON/OFF ratio” value was 1.23.
In the case of U8G U10G C13U, the “aptazyme ON/OFF ratio” value is reported as 1.11.
In the case of U8G U10G C13A, the “aptazyme ON/OFF ratio” value is reported as 1.15.
With G9A U10A C12A the “aptazyme ON/OFF ratio” value was 1.74.
For G9A U10A C12U, the “aptazyme ON/OFF ratio” value was 1.86.
In the case of G9A U10A C12G, the “aptazyme ON/OFF ratio” value is reported as 1.61.
In the case of U8G U10A U11G, the “aptazyme ON/OFF ratio” value is reported as 1.34.
In the case of U8G U10A U11C, the “aptazyme ON/OFF ratio” value is reported as 1.02.
With U8G U10A U11A the “aptazyme ON/OFF ratio” value was 1.71.
In the case of U8G U10C U11A C13A, the “aptazyme ON/OFF ratio” value is reported as 1.15.
In the case of U8G U10C U11A C13U, the “aptazyme ON/OFF ratio” value is reported as 1.22.
In the case of U8G U10C U11A C13G, the “aptazyme ON/OFF ratio” value is reported as 1.05.
For U8G U10C U11A C12G, the “aptazyme ON/OFF ratio” value was 1.26.
With U8G U10C U11A C12U the “aptazyme ON/OFF ratio” value was 1.28.
In the case of U8G U10C U11A C12A, the “aptazyme ON/OFF ratio” value is reported as 1.39.
In the case of U8G U10A C13G, the “aptazyme ON/OFF ratio” value is reported as 1.12.
In the case of U8G U10A C13U, the “aptazyme ON/OFF ratio” value is reported as 1.19.
For U8G U10A C13A, the “aptazyme ON/OFF ratio” value was 1.14.
For U8G U11A C12G C13A, the “aptazyme ON/OFF ratio” value was 1.1.
With U8G U11A C12G C13U the “aptazyme ON/OFF ratio” value was 1.09.
For U8G U11A C12G C13G, the “aptazyme ON/OFF ratio” value was 1.09.
With U8G U11A C13G the “aptazyme ON/OFF ratio” value was 1.11.
